In PMC8307404, “Crystal Structure-Guided Design of Bisubstrate Inhibitors and Photoluminescent Probes for Protein Kinases of the PIM Family” (Molecules, 2021):
Square brackets hold non-standard residues; d marks the D form. Peptide text beside a SMILES is read from it. * marks the point of attachment. X3 = O=C(CCCCCNCc1nc2c(sc3cc(Br)cnc32)c(=O)[nH]1)*

Tests used:
Assay in all cases: Kinase profiling (radiometric filter-binding)
Type in all cases: biochemical
[1] = target: T1, SGK1 (Homo sapiens, UniProt O00141); details: SGK1, 1 µM inhibitor; read-out: Residual activity, %
T1 sequence (O00141 1-431): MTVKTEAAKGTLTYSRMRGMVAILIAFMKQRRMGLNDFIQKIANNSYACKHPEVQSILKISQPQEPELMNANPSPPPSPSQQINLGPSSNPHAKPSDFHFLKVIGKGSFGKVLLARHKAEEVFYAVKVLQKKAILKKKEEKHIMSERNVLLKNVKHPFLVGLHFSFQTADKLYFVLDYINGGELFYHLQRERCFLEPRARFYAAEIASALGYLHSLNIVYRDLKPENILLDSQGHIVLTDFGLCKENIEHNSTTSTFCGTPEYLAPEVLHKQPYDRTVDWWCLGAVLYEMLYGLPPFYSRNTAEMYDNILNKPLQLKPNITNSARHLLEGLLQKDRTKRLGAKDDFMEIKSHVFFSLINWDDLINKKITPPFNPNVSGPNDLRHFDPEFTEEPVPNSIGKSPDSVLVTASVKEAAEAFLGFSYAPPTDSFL
How it was run: (§1)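 Each compound, at 1 µM final, is screened against human protein kinases in a radiometric filter-binding format. ATP is set at or under the KM of each kinase. Values give retained activity relative to a control lacking inhibitor.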

[2] = target: T2, TGFBR1 (Homo sapiens, UniProt P36897); details: TGFBR1, 1 µM inhibitor; read-out: Residual activity, %
T2 sequence (P36897 34-503): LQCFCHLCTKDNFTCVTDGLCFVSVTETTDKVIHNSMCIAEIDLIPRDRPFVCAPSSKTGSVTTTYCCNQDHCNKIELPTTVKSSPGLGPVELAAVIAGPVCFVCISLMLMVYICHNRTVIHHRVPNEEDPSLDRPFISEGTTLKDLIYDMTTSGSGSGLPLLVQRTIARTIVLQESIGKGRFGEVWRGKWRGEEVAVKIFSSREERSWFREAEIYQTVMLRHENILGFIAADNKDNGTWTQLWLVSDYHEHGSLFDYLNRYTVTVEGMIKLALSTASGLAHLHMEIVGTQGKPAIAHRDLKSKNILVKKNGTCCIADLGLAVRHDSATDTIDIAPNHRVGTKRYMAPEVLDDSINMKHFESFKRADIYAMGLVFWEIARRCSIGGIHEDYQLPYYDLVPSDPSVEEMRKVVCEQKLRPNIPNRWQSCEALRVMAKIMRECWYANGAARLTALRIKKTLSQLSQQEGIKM
How it was run: as §1

[3] = target: T3, ASK1 (Homo sapiens, UniProt Q99683); details: ASK1, 1 µM inhibitor; read-out: Residual activity, %
T3 sequence (Q99683 1-1374): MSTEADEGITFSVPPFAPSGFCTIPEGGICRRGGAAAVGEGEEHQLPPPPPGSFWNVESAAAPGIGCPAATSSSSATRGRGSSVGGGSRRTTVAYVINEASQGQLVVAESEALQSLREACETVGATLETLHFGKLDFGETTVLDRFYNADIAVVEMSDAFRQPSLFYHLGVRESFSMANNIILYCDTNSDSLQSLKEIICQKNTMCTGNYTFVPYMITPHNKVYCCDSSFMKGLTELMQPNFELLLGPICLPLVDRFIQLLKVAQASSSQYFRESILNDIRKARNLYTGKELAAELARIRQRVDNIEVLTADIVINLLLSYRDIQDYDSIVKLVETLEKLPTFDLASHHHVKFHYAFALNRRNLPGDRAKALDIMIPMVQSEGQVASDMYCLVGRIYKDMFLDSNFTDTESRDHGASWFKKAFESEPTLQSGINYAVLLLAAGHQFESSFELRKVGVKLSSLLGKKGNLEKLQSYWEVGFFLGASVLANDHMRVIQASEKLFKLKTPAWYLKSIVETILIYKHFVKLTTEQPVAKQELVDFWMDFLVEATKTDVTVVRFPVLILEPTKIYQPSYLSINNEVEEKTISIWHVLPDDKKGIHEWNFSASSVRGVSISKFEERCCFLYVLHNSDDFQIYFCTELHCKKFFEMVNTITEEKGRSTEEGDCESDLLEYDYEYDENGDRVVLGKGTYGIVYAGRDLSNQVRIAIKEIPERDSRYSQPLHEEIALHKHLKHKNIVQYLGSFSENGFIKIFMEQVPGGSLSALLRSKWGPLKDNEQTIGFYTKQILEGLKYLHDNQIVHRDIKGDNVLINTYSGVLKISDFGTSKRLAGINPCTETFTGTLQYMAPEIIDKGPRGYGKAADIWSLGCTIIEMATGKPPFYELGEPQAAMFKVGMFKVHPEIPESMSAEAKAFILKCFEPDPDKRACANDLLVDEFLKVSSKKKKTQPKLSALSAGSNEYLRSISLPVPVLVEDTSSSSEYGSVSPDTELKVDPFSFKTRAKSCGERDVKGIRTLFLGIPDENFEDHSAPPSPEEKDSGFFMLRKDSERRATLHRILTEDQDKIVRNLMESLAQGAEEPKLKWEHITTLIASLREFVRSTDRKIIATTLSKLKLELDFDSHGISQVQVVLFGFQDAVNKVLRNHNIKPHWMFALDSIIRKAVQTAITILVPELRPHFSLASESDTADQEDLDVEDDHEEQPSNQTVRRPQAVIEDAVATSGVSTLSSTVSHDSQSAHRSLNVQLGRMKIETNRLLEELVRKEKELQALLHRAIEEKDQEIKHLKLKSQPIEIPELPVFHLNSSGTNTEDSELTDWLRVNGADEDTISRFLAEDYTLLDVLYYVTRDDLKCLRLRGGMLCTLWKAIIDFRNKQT
How it was run: as §1

[4] = target: IR (Homo sapiens, UniProt P06213); details: 1 µM inhibitor, read-out: Residual activity, %
How it was run: as §1

[5] = target: STK33 (Homo sapiens, UniProt Q9BYT3); details: STK33, 1 µM inhibitor; read-out: Residual activity, %
How it was run: as §1

[6] = target: IRAK1 (Homo sapiens, UniProt P51617); details: IRAK1, 1 µM inhibitor; read-out: Residual activity, %
How it was run: as §1

[7] = target: BTK (Homo sapiens, UniProt Q06187); details: 1 µM inhibitor, read-out: Residual activity, %
How it was run: as §1

[8] = target: Src (Homo sapiens, UniProt P12931); details: 1 µM inhibitor, read-out: Residual activity, %
How it was run: as §1

[9] = target: IGF-1R (Homo sapiens, UniProt P08069); details: 1 µM inhibitor, read-out: Residual activity, %
How it was run: as §1

Sequence of Src (P12931 whole entry): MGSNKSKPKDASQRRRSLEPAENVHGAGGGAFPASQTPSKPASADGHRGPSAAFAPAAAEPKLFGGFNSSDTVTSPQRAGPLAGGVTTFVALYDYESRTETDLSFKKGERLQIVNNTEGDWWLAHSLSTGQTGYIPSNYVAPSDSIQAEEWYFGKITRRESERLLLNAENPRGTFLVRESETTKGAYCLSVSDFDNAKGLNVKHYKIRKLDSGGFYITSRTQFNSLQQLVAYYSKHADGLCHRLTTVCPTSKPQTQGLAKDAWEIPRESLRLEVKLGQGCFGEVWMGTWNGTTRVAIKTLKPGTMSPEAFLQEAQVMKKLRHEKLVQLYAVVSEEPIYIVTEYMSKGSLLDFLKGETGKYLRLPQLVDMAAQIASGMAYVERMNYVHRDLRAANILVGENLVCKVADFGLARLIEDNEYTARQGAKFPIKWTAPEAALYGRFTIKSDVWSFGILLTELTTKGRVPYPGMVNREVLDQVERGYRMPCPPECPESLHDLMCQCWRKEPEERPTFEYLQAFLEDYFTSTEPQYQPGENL
Sequence of IGF-1R (P08069 31-1367): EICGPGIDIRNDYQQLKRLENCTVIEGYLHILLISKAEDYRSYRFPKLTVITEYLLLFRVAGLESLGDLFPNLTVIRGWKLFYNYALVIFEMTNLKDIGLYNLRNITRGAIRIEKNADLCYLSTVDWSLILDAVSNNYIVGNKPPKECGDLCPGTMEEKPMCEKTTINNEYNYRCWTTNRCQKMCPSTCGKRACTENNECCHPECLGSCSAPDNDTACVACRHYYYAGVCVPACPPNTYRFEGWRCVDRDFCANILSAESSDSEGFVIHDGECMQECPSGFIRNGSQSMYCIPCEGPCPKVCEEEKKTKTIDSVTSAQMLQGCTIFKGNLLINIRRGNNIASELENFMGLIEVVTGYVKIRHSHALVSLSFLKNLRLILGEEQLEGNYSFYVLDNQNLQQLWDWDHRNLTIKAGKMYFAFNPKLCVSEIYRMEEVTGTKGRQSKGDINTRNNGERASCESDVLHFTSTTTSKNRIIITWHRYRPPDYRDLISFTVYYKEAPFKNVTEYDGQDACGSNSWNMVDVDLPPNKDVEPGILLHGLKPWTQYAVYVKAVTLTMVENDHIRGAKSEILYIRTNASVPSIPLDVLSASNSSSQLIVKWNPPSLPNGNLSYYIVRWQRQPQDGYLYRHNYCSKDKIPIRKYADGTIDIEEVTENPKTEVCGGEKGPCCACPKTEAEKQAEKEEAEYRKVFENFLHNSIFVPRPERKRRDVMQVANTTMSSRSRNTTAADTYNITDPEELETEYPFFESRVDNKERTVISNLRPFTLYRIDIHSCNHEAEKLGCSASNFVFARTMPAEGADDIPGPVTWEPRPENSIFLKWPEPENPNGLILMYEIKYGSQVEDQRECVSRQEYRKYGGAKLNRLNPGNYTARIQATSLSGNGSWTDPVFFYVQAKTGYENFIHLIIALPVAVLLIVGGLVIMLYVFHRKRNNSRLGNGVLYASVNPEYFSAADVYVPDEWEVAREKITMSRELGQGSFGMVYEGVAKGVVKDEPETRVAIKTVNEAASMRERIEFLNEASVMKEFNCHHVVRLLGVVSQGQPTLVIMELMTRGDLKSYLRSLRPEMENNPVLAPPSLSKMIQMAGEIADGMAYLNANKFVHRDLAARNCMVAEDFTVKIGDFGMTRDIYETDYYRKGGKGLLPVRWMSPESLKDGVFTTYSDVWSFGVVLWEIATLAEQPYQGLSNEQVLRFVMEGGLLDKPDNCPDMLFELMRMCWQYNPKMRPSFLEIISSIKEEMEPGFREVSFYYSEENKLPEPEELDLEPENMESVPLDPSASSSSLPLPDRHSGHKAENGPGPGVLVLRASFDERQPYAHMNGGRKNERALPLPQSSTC
Sequence of IR (P06213 28-1382): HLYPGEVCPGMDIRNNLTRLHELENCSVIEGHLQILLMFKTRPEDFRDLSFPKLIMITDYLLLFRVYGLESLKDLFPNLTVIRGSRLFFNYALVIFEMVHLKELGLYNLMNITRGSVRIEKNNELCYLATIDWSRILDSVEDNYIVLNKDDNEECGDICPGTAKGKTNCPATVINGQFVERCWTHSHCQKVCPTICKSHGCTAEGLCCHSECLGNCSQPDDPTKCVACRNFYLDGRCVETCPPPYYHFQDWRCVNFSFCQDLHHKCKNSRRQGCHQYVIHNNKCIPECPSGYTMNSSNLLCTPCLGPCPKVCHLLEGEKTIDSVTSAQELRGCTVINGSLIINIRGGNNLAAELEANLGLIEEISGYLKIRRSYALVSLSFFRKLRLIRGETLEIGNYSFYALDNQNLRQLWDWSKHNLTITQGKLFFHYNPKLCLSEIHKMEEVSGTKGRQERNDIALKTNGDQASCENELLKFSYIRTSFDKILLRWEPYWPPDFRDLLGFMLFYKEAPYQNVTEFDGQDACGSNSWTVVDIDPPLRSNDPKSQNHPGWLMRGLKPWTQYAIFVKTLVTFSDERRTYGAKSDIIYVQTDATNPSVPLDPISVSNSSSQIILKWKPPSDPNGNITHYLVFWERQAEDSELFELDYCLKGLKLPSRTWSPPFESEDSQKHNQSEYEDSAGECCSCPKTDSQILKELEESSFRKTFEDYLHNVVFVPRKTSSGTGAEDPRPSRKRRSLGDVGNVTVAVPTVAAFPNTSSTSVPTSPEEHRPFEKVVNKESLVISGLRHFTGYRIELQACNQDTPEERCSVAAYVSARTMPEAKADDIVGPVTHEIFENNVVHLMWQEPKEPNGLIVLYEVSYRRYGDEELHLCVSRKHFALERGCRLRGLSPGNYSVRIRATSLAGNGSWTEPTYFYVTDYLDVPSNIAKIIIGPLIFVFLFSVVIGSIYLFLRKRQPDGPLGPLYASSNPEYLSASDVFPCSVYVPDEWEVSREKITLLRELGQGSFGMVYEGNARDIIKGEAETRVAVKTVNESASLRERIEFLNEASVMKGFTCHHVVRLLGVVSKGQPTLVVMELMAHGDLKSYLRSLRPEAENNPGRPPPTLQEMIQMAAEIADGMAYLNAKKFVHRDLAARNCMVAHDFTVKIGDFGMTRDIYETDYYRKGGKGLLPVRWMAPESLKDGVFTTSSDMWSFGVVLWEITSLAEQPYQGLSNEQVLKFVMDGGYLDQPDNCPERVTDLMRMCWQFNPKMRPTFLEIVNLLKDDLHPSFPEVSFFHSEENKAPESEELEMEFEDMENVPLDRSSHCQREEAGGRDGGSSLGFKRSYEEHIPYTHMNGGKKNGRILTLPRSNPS
Sequence of STK33 (Q9BYT3 whole entry): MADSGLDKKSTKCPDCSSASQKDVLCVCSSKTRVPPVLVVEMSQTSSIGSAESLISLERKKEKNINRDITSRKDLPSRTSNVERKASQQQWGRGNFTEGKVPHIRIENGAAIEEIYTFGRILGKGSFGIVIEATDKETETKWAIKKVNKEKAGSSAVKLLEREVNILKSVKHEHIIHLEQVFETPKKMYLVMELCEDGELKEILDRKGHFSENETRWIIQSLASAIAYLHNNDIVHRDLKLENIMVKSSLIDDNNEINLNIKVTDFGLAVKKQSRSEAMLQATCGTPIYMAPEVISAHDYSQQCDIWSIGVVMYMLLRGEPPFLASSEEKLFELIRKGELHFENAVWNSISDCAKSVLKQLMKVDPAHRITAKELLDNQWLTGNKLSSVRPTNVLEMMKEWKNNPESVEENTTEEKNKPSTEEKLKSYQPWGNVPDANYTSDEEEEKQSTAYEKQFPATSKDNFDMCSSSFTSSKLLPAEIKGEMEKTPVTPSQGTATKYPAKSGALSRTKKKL
Sequence of IRAK1 (P51617 whole entry): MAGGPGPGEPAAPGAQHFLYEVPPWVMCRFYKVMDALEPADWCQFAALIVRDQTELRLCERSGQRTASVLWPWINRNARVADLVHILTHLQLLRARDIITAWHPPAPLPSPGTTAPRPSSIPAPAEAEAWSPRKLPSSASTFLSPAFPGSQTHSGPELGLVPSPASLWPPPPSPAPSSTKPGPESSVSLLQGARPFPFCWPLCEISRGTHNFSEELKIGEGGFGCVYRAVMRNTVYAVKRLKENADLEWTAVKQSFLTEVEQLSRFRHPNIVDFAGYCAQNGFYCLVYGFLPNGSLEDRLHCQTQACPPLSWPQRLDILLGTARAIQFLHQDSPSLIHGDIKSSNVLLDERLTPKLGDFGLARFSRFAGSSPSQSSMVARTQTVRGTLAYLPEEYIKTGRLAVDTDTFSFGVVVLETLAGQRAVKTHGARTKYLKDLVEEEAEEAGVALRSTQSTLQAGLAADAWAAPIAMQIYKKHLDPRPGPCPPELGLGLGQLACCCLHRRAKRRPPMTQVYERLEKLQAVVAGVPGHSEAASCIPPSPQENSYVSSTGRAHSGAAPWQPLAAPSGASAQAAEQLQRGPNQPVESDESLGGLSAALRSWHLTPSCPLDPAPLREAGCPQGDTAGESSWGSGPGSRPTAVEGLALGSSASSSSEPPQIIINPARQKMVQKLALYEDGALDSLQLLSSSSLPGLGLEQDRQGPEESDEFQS

Which results are given for `N=C(N)NCCC[C@@H](NC(=O)CCCCCNC(=O)Cn1cnc2c(I)c(I)c(I)c(I)c21)C(=O)N[C@H](CCCNC(=N)N)C(=O)N[C@H](CCCNC(=N)N)C(=O)N[C@H](CCCNC(=N)N)C(=O)N[C@H](CCCNC(=N)N)C(=O)N[C@H](CCCNC(=N)N)C(=O)N[C@H](CCCCN)C(N)=O` [ARC-3125, TIBI-CH2-C(=O)-Ahx-(D-Arg)6-D-Lys-NH2]?
remaining activity at 1 µM [1]: 9 ± 5%; remaining activity at 1 µM [2]: 108 ± 18%; remaining activity at 1 µM [3]: 93%; remaining activity at 1 µM [4]: 22 ± 6%; remaining activity at 1 µM [5]: 84 ± 20%; remaining activity at 1 µM [6]: 16 ± 3%; remaining activity at 1 µM [7]: 31 ± 2%; remaining activity at 1 µM [8]: 153 ± 22%

Which remaining activity at 1 µM [1] does the source give for `N=C(N)NCCC[C@@H](NC(=O)CNC(=O)[C@@H](CCCNC(=N)N)NC(=O)[C@@H](CCCNC(=N)N)NC(=O)CCCCCCCNCc1nc2c(sc3cc(Br)cnc32)c(=O)[nH]1)C(=O)N[C@H](CCCCN)C(N)=O` [Compound 1, BPTP-Aoc-(D-Arg)2-Gly-D-Arg-D-Lys-NH2] here?
Its remaining activity at 1 µM is 110 ± 19%.

What about the remaining activity at 1 µM [2] of the same compound?
The remaining activity at 1 µM was 103 ± 8%.

What about the remaining activity at 1 µM [9] of the same compound?
Its remaining activity at 1 µM is 77 ± 8%.

And the remaining activity at 1 µM [3]?
The remaining activity at 1 µM was 99%.

And the remaining activity at 1 µM [4]?
Its remaining activity at 1 µM is 122 ± 7%.

What about the remaining activity at 1 µM [5] of the same compound?
Its remaining activity at 1 µM is 110 ± 2%.

What about the remaining activity at 1 µM [6] of the same compound?
The remaining activity at 1 µM was 131 ± 17%.

What about the remaining activity at 1 µM [7] of the same compound?
The remaining activity at 1 µM was 106 ± 10%.

What about the remaining activity at 1 µM [8] of the same compound?
Its remaining activity at 1 µM is 97 ± 3%.

For `N=C(N)NCCC[C@@H](NC(=O)CCCCCNCc1nc2c(sc3cc(Br)cnc32)c(=O)[nH]1)C(=O)N[C@H](CCCNC(=N)N)C(=O)N[C@H](CCCNC(=N)N)C(=O)N[C@H](CCCNC(=N)N)C(=O)N[C@H](CCCNC(=N)N)C(=O)N[C@H](CCCNC(=N)N)C(=O)N[C@H](CCCCN)C(N)=O` [ARC-3126, BPTP-Ahx-(D-Arg)6-D-Lys-NH2] (X3-[dR][dR][dR][dR][dR][dR][dK]-NH2), which remaining activity at 1 µM [1] is on record?
Its remaining activity at 1 µM is 75 ± 9%.

What about the remaining activity at 1 µM [2] of the same compound?
Its remaining activity at 1 µM is 109 ± 2%.

What about the remaining activity at 1 µM [9] of the same compound?
The remaining activity at 1 µM was 114 ± 24%.

And the remaining activity at 1 µM [3]?
Its remaining activity at 1 µM is 121 ± 11%.

What about the remaining activity at 1 µM [4] of the same compound?
The remaining activity at 1 µM was 117 ± 6%.

What about the remaining activity at 1 µM [5] of the same compound?
The remaining activity at 1 µM was 107 ± 6%.

And the remaining activity at 1 µM [6]?
Its remaining activity at 1 µM is 120 ± 2%.

And the remaining activity at 1 µM [7]?
Its remaining activity at 1 µM is 43 ± 2%.

What about the remaining activity at 1 µM [8] of the same compound?
Its remaining activity at 1 µM is 103 ± 2%.

With `N=C(N)NCCC[C@@H](NC(=O)CNC(=O)[C@@H](CCCNC(=N)N)NC(=O)[C@@H](CCCNC(=N)N)NC(=O)Cn1cc(CNCc2nc3c(sc4ccc(Br)cc43)c(=O)[nH]2)nn1)C(=O)N[C@H](CCCCN)C(N)=O` [Compound 3, BBTP-Amt-(D-Arg)2-Gly-D-Arg-D-Lys-NH2] as the compound, how does the remaining activity at 1 µM [1] read?
Its remaining activity at 1 µM is 95 ± 4%.

What about the remaining activity at 1 µM [2] of the same compound?
Its remaining activity at 1 µM is 95 ± 10%.

And the remaining activity at 1 µM [9]?
The remaining activity at 1 µM was 58 ± 7%.

And the remaining activity at 1 µM [3]?
Its remaining activity at 1 µM is 101 ± 2%.

What about the remaining activity at 1 µM [4] of the same compound?
Its remaining activity at 1 µM is 113 ± 23%.

What about the remaining activity at 1 µM [5] of the same compound?
Its remaining activity at 1 µM is 91%.

And the remaining activity at 1 µM [6]?
Its remaining activity at 1 µM is 113 ± 11%.

What about the remaining activity at 1 µM [7] of the same compound?
The remaining activity at 1 µM was 82 ± 1%.

What about the remaining activity at 1 µM [8] of the same compound?
Its remaining activity at 1 µM is 119 ± 1%.

What does the source list for `N=C(N)NCCC[C@@H](NC(=O)CNC(=O)[C@@H](CCCNC(=N)N)NC(=O)[C@@H](CCCNC(=N)N)NC(=O)CCCCCCCNCc1nc2c(sc3ccc(Br)cc32)c(=O)[nH]1)C(=O)N[C@H](CCCCN)C(N)=O` [Compound 2, BBTP-Aoc-(D-Arg)2-Gly-D-Arg-D-Lys-NH2]?
remaining activity at 1 µM [1]: 89 ± 3%; remaining activity at 1 µM [2]: 106 ± 7%; remaining activity at 1 µM [9]: 91 ± 6%; remaining activity at 1 µM [3]: 102 ± 5%; remaining activity at 1 µM [4]: 139 ± 35%; remaining activity at 1 µM [5]: 106 ± 3%; remaining activity at 1 µM [6]: 134 ± 21%; remaining activity at 1 µM [7]: 99 ± 20%; remaining activity at 1 µM [8]: 110 ± 12%
